Measurements from the supplement of paper PMC9170038.

Test system: MS2 coat protein
Assay: apparent KD of MS2 coat protein; designed switch direction (-1 OFF switch, 1 ON switch): -1; higher = weaker reporter binding
Procedure, shortened: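 On Illumina chips, designed RNA switches with common flanks were made by stalled E. coli RNA polymerase. Titrations with SNAP-549-labelled MS2 coat protein, doubling from 0.7 or 1.5 nM to 3 µM, were done with no input, with 200 uM small-molecule ligand, or with an oligonucleotide input. Apparent KD is the median per design over clusters, from curve fits of normalised cluster fluorescence.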

[1] = Eterna round: R95, input ligand: microRNA oligo, concentration not stated
[2] = Eterna round: R95, input ligand: FMN 200 uM
[3] = Eterna round: R95, input ligand: none
[4] = input ligand: microRNA oligo, concentration not stated

| Sequence | apparent KD of MS2 coat protein [1] [nM] | apparent KD of MS2 coat protein (input ligand: FMN 200 uM) [nM] | apparent KD of MS2 coat protein (input ligand: none) [nM] | apparent KD of MS2 coat protein [2] [nM] | apparent KD of MS2 coat protein [3] [nM] | apparent KD of MS2 coat protein [4] [nM] |
| --- | --- | --- | --- | --- | --- | --- |
| GAUGAGGUAGGAUAUACGAGAAUAUAGGGUAGAUAUAUAACACAUGAGGAUCACCCAUGUAGAAGGACCAGUAG [Mat - Exclusion 2 - Mod of my Tesla design - D70] (puzzle: Exclusion 2) | 33.6 |  |  |  |  |  |
| CUUAAUUGUCAGAUGGGUGACAUGAGGAUCACCCAUGUCACAAGCUUUUUGUUCGUCUUAUAAUUAACCCAUCUGAC [Stov1/11-B3] (Eterna round: R97, puzzle: Sensor, turn-off variant 1) |  | 14.5 | 12.3 |  |  |  |
| AUAGAGUCAGGAUAUACAAGAUGAAAGAUAGAUAGAAGAAAGUAGAAGGGACAUGAGGAUCACCCAUGUAAGAA [JR_Exclu4_Sub051] (puzzle: Exclusion 4) | 31.7 |  |  | 34.9 | 36.2 |  |
| AUAAUGUGAGGAUAUCAGUAAGAAUGCCUCGGCAUUCUUACUGAGAAGGCACAUGAGGAUCACCCAUGUGAUUA [E4/4-B2] (Eterna round: R97, puzzle: Exclusion 4) |  | 596 | 182 |  |  |  |
| UAUUAUAAUGUAGGAUAUCUGCACGAUUAGUGCAGAGAAGGACAUGAGGAUCACCCAUGUAUAGUAGCUUCGGCUACAUUAUUU [ENG1-B1] (Eterna round: R96, puzzle: Exclusion NG 1) |  | 114 | 77.5 |  |  | 60.7 |
| UUAGGCUGAAGAUCAAUUAAUUAACAUGAGGAUCACCCAUGUAAGGAUAUCAGCUCGUGUAGAGCUGAGAAGGUACAUGCAGCC [ExNG3/18-A3] (Eterna round: R96, puzzle: Exclusion NG 3) |  | 436 | 101 |  |  | 135 |
| ACUUGUGCCCUAGGAUAUCGCCCAGCCAAUGGAUGAGAAGGAGGCGGGUGAAACAUGAGGAUCACCCAUGUAAACGCACAGGCG [Esa] (Eterna round: R96, puzzle: Exclusion NG 1) |  | 114 | 26.9 |  |  | 25.5 |
| AAUAAGUGAGGAUAUGCGUCUGGUCCCGGGAGGGCUAUAUAACAUGAGGAUCACCCAUGUAGAAGGCACAAUAA [Excls2IV] (puzzle: Exclusion 2) | 15.2 |  |  |  |  |  |
| UGCAGACGAGGAUAUAGAUUUAGAUACAUGAGGAUCACCCAUGUAUAGAUGUAUUUAGAUUUAGAAGGCGUCUGCA [E5/13-A1] (Eterna round: R97, puzzle: Exclusion 5) |  | 401 | 305 |  |  |  |
| CUUUUGUGAGGAUAUUGGUAGUAAAUAAAUAAAAUUAUUACCGAGAAGGCACAUGAGGAUCACCCAUGUUCCUC [Salish 062 v17] (Eterna round: R97, puzzle: Exclusion 4) |  | 823 | 50.7 |  |  |  |
| AUUAAAAUAUAGGAUAUCGAAUUUAUUAUUUAACGAGAAGGAUGAACAUGAGGAUCACCCAUGUGGUAUCAUGG [Mat - Exclusion 6 - JL Mod - D35] (puzzle: Exclusion 6) | 156 |  |  | 177 | 189 |  |
| ACGCAGAGAGGAUAUACAUGAGGAUCACCCAUGUAUAAACGCACUAACUCUCCUCACUGUAGAAGGCUCAUGCA [Larerige] (puzzle: Exclusion 3) | 11.3 |  |  |  |  |  |
| UUAAUUAAUUAACGCAGCAAGAUCACAUGAGGAUCACCCAUGUAGGAUAUCAGCUCGUGUAGAGCUGAGAAGGACAUAGCUGCG [ExNG3/1-A3] (Eterna round: R96, puzzle: Exclusion NG 3) |  | 80.8 | 16.8 |  |  | 17.2 |
| GGAGCAAAUGUCAGGAUAUCGUGGUCGAUAGAUCACGAGAAGGGACAUGAGGAUCACCCAUGUCAGUCCGCUCC [Mat - Exclusion 4 - Eli Mod - D58] (Eterna round: R97, puzzle: Brourd's mod of Exclusion 4) |  | 22 | 14.3 |  |  |  |
| GAGUAGGGAGGAUAUGCAGAAUGACUCGUAAGUAAGAUAGGACAUGAGGAUCACCCAUGUAGAAGGCUCUGAUG [jun14#1] (Eterna round: R97, puzzle: Exclusion 2) |  | 46.3 | 42 |  |  |  |
| UGAUCAGACCGAGGAUAUACAUGUAGGACCCACGUGAGUGGGUCCAGUACAUGAGGAUCACCCAUGUAGAAGGCGGUCUGAUCU [JL ENG2 1.89] (Eterna round: R96, puzzle: Exclusion NG 2) |  | 241 | 94.6 |  |  | 70.6 |
| ACAUGAGGAUCACCCAUGUCCGGCUGGUCUGGUCCGGCUGUCGAGGAUAUAGUCCGGUGUUCGCGCUAGAAGGCGAGGGCUGGA [Aenatbe mod 49] (Eterna round: R96, puzzle: Exclusion NG 3) |  | 109 | 97.5 |  |  | 68.3 |
